Test results as given in US20250304662A1 (published 2025).

T1: Kp FimHLD
T1 chain: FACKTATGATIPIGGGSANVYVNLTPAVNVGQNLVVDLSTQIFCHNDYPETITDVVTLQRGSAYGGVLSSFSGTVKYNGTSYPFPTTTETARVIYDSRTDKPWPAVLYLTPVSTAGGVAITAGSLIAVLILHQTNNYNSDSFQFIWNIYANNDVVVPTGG

T2: Ec FmlHLD
T2 chain: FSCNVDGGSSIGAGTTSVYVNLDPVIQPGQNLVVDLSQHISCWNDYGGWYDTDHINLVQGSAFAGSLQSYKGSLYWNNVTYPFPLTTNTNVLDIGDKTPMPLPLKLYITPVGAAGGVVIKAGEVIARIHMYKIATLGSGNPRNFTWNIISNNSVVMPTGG

B1: Kp 2D07 (antibody, V domains shown)
VH: EVQLQQSGPELVRPGASVKISCKASGYTFTDYYIHWLKQRPGQGLEWIGLIFPGSGSIYCNEKFKGKATLTVDKSSTTAYMLLSSLTSEDSAVYFCARWETTAWYFDVWGTGTTVTVSS
VL: QIVLTQSPAILSASPGEKVTMTCRASLSVSYMHWYQQKPGSSPKPWIYATSNLASGVPARFSGSGSGTSYSLTVSRVEAEDAATYYCQQWRSYPYTFGGGTKLEIKR
B2: Kp 2D04 (antibody, V domains shown)
VH: EVQLQQPGGELVRPGSSVKMSCKTSGYTFTFYGINWVKQRPGQGLEWIGYIYVGNGYTEYNEKFKVKATLTSDTSSSTAYMQLSGLTSEDSAIYFCARSDGYNYFDYWGQGTTLTVSS
VL: QIVLTQSPAILTASPGEKVTMTCRASSSVHYMHWYQQKPGSSPKPWIYATSNLASGVPARFSGSGSGTSYSLTISRVEAEDTATYYCHQWSSNPPTFGAGTKLEIKR
B3: Ec A2 (antibody, V domains shown)
VH: EVQLQQSGAEQVRPGASVKMSCKASGYTFTTYNMNWMKQTPGQGLEWIGVIYPGNGDISYNQKFKGKATLTVDKSSSTAYMQLSSLTSEDSAVYFCAREGDYGPWFAYWGQGTLVTVSA
VL: QIVLTQSPAIMSASPGEKVTMTCRASSSVSSSYLHWYQQKSGASPKFWIYSTSKLASGVPARFSGSGSGTSYSLTISSVEAEDAATYYCQHYSRYPLTFGGGTKLEIKR
B4: Ec3 B7 (antibody, V domains shown)
VH: EVQLQQPGAELVRPGASVKMSCKASGYTFTIYNLHWVKQTPRQGLEWIGTIYPGDGDTSYNQKFKGKATLTVDKSSSTAYMQLSNLTSEDSAVYFCAREGDYGPWFAYWGQGTLVTVSA
VL: QIVLTQSPAIMSASPGEKVTMTCRASSSVSSSYLHWYQQKSGASPKLWIYSSSNLASGVPARFSGSGSGTSYSLTINSVEAEDAATYYCQHYGSYPLTFGGGTKLEIKR
B5: Kp2 2C07 (antibody, V domains shown)
VH: EVKLVESGEGLVKPGGSLKLSCAASGFTFSSYAMSWVRQTPEKRLDWVAYISSGGDHIYYADTVKGRFTISRDNARNTLYLQMSSLKSEDTAMYYCTRDTGYYVSRYFDVWGTGTTVTVSS
VL: DIVMTQSQKFMSTSVGDRVSVTCKASQNVVTNVAWYQQKSGQSPKVVIYSASFRSSGVPDRFTGSGSGTDFTLTISNVQSEDLAEYFCHQYNSHPLTFGGGTKLEIKR
B6: Kp 2C09 (antibody, V domains shown)
VH: EVMLVESGEDLVKPGGSLKLSCIASGFTFSSYAMSWVRQTPEKRLEWVAYISSGGDYIYYTDTVKGRFTISRDNARNTLFLQMSSLKSEDTAMYYCTRDTGYYVSRYFDVWGTGTTVTVSS
VL: DIVMTQSQKFMSTSVGDRVSVTCKASQNVGTNVAWYQQKPGQSPKALIYSASFRNSGVPDRFTGSGSGTDFTLTISNVQSEDLAEYFCHQYNNYPLTFGGGTKLEIKR
B7: 2G04 (antibody, V domains shown)
VH: EVQLQQPGPELVKPGSSLKISCKASGYTFTDYFINWVKQRPGQGLDWIGWIFPGSGSTYYNDKFKGKATLTVDKSSSTAYMLLSSLTSEASAVYFCARWDSDSTYWYFDVWGTGTTVTVSS
VL: QIVLTQSPALMAASPGEKVTITCSVNSSISSSTLHWYQQKSQTSPKPWIYGTSNLASGVPIRFSGSGSGTSYSLTISSMEAEDAATYYCQQWSTYPYTFGGGTKLEIKR
B8: Ec1 F7 (antibody, V domains shown)
VH: EVQLQQPGPVLVKPGPSVKISCKASGFTFTDYFIHWVKQSHGKSLEWIGLVSPYNGGTYYNQQFKGKATLTVDTSSSTAYMDLNSLTSEDSAVYYCTRLLRGYWYFDVWGTGTTVTVSS
VL: QIVLTQSPALMAASPGEKVTITCSVSSSIGSSNLHWYQQKSETSPKPWIYGTSNLASGVPVRFSGSGSGTSYSLTISSMEAEDAATYYCQQWSTYPYTFGGGTKLEIKR
B9: Kp 1C01 (antibody, V domains shown)
VH: EVQLQQPGPVLVKPGPSVKISCKASGFTFTDYYMHWVKQSHGKSLEWIGLVSPYNGGTFYNQKFKGKATLTVDTSSSTAYMELNSLTSEDSAVYYCARVGNSYVHYAMDYWGQGTSVTVSS
VL: QIVLTQSPALMAASPGEKVTITCSVSSSISSSNLHWYQQKSETSPKPWIYGTSNLASGVPVRFSGSGSGTSYSLTISSMEAEDAATYYCQQWSNYPYTFGGGTKLEIKR
B10: Kp 2E08 (antibody, V domains shown)
VH: EVQLQQPGAELAKPGASVKLSCKASGYNFTSYWMHWVKQRPGQGLEWIGLIHPNSGGTYYNEKFKSKATLTLDRSSSTAYMQLSSLTSEDSAVYYCARFEEEWGGYWYFDVWGTGTTVTVSS
VL: QIVLTQSPALMAASPGEKVTITCSVSSSISSSNLHWYQQKSETSPKPWIYGTSNLASGVPVRFSGSGSGTSYSLTISSMEAEDAATYYCQQWSSYPYTFGGGTKLEIKR
B11: Kp 2G02 (antibody, V domains shown)
VH: EVQLQQSGPVLVKPGPSVKISCKASGFTFTDYYMHWVKQSHGKSLEWIGLVYPYNGGTYYNQKFKGKATLTVDTSSSTAYMELNSLTSEDSAVYYCVRLGNGSSNEWYFDVWGTGTTVTVSS
VL: QIVLTQSPALMAASPGEKVTITCSVSSSISSYNLHWYQQKSETSPKPWIYGTSNLASGVPVRFSGSGSGTSYSLTISSMEAEDAATYYCQQWRTYPWTFGGGTKLEIKR
B12: Kp 1B07 (antibody, V domains shown)
VH: EVQLQQPGAELVKPGTSVKLSCKASGYTFTSYWMHWVKQRPGQGLEWIGMIHPNSGSTNYNEMFESKASLTVDKSSSTAYMQLSSLTSEDSAVYYCARIGYSGWGQGTSVTVSS
VL: DIVMTQSPSSLSVSAGEKVTMSCKSSQSLLNGGNQKNYLAWYQQKPGQPPKVLINGASTRESGVPDRFTGNGSGTDFTLTISSVQAEDLAVYYCQNDHTYPLTFGAGTKLELKR
B13: Kp 1E04 (antibody, V domains shown)
VH: EVQLQQSGAELVKPGASVKLSCKASGYTFTSYWVHWVRQRPGQGLEWIGMIHPNSGSTNYNEKFKSKATLTVDKSSSTAYMQLSSLTSEDSAVYYCASYYYGSSYYFDYWGQGTTLTVSS
VL: DIVMTQSPSSLTVTAGEKVTMSCKSSQSLLNSGNQKNYLTWYQQKPGQPPKLLIYWASTRESGVPDRFTGSGSGTDFTLTISSVQAEDLAVYYCQNDYSYPLTFGAGTKLELKR
B14: Ec E7 (antibody, V domains shown)
VH: EVQLQQSGAELVKPGASVKVSCKASGYSFTNYWVHWVKQRPGQGLEWIGRIYSSDGDSNYNQKFKGKATLTVDKSSSTAYMQLSSLTSEDSAVYYCAIEGNLYFDYWGQGTTLTVSS
VL: DIVLTQSPASLAVSLGQRATISCRASQSVSTSSYSYMHWYQQKPGQPPKFLIKYASNLESGVPARFSGSGSGTDFTLNIHPVEEEDTATYYCQHSWEIPLTFGAGTKLKLKR
B15: Ec F11 (antibody, V domains shown)
VH: QVQLKESGPGLVAPSQSLSITCTVSGFSLTNYAISWVRQPPGKGLEWLGIIWTGGGTLYNSALKSRPSISKDNSKSQVFLKMNSLQTDDTARYYCARAYYSNYDWYFDVWDTGTTVTVSS
VL: DIQMTQSPSSLSASLGDRVTISCSASQGISNYLNWYQQKPDGTVKLLIYYTSSLHSGVPSRFSGSGSGTDYSLTISNLEPEDIATYYCQQYSQVPYTFGGGTKLEIKR
B16: Ec C12 (antibody, V domains shown)
VH: QVQLKQSGPGLVAPSQSLSITCTVSGFSLTNYAISWVRQPPGKGLEWLGIIWTGGGTLYNSALKSRLSISKDNSKSQVFLKMNSLQTDDTARYYCARAYYSNYDWYFDVWDTGTTVTVSS
VL: DIQMTQSPSSLSASLGDRVTISCSASQGISNYLNWYQQKPDGTVKLLIYYTSSLHSGVPSRFSGSGSGTDYSLTISNLEPEDIATYYCQQYSQVPYTFGGGTKLEIKR
B17: Kp 1B02 (antibody, V domains shown)
VH: EVQLQQSGAELVRPGSSVKMSCKTSGYTFTFYGINWVKQRPGQGLEWIGYIYVGNGYSEYNEKFKVKATLTSDTSSSTAYMQLSGLTSEDSAIYFCARSDGYNYFDYWGQGTTLTVSS
VL: QIVLTQSPAILSASPGEKVTMTCRASSSLHYMHWYQQKTGSSPKPWIYATSNLASGVPARFSGSGSGTSYSLTISRVEAEDTATYYCQQWSSNPPTFGAGTKLELKR
B18: Kp 1D09 (antibody, V domains shown)
VH: EVQLQQPGAELVKPGASVKLSCKASGYTFTNYWIHWMKQRPGRGLEWIGRIEPNSGDTKYNEKIKSRATLTVDKPSSTAYMQLSSLTSEDSAVYYCARSGYDYPEAWGQGTTLTVSS
VL: DIVLTQSPASLAVSPGQRATISCRASEGVEYYGTTLMQWYQQKPGQPPKLLIYAASNVESGVPARFSGSGSGTDFSLNIHPVEEDDIAMYFCQQSRKVSWTFGGGTKLEIKR
B19: Kp 2B06 (antibody, V domains shown)
VH: EVQLQQPGAELVKPGASVKLSCKASGYTFTNYWMHWVKHRPGRGLEWIGRIDPNSGGTKYNEKFKNKATLTVDNPSSTGYMQLSSLTSEDSAVYYCTRSGYDYPDYWGQGTTLTVSS
VL: DIVLTQSPASLAVSLGQRATISCRASESVEYYGTSLMQWYQQKPGQPPKVLIYAASNVDSGVPPRFSGSGSGTDFSLNFHPVEEDDIAMYFCQQSRKVPWTFGGGTKLEIKR

Assays:
Assay in all cases: ELISA
[1] = biological target: T1, Kp FimHLD
[2] = biological target: T2, Ec FmlHLD
[3] = biological target: Ec FimHLD

Row | Binder | EC50 [1] | EC50 [2] | EC50 [3]
1 | B1 | 0.0144 µg/mL | 0.0178 µg/mL | 0.0129 µg/mL
2 | B2 | 0.0119 µg/mL | – | 0.0121 µg/mL
3 | B3 | 0.0141 µg/mL | – | 0.0131 µg/mL
4 | B4 | 0.0391 µg/mL | – | 0.0241 µg/mL
5 | B5 | 0.0186 µg/mL | – | 0.013 µg/mL
6 | B6 | 0.0101 µg/mL | – | 0.0129 µg/mL
7 | B7 | 0.0081 µg/mL | 2.89 µg/mL | 0.0115 µg/mL
8 | B8 | 0.0078 µg/mL | 0.0083 µg/mL | 0.0109 µg/mL
9 | B9 | 0.0125 µg/mL | 0.886 µg/mL | 0.0146 µg/mL
10 | B10 | 0.0149 µg/mL | – | 0.0092 µg/mL
11 | B11 | 0.0105 µg/mL | 0.0144 µg/mL | 0.015 µg/mL
12 | B12 | 0.0148 µg/mL | – | –
13 | B13 | 0.731 µg/mL | – | –
14 | B14 | – | – | 0.0266 µg/mL
15 | B15 | 0.752 µg/mL | – | 0.0273 µg/mL
16 | B16 | – | – | 0.0122 µg/mL
17 | B17 | 0.0166 µg/mL | – | 0.024 µg/mL
18 | B18 | 0.0383 µg/mL | – | 0.0227 µg/mL
19 | B19 | 0.0169 µg/mL | – | 0.0092 µg/mL
